Laboratory results reported in the DeepSol protein solubility set.

Test: soluble on expression in E. coli; label from the status in PepcDB or PDB records

| Sequence | soluble on expression in E. coli |
| --- | --- |
| MVLIDTEYVRAVVHNVGHRARCGVASKVRALKLAHSQARLRSYSQACERASYIDGRCEYYPSLDVASSSRNSEMLNSGFFDGYSWNTPNIQSQSSSDVTAKTELRRLMTETSEDPIHKEDSETLRRLIMWQEFRDAGVDVNTTQPGYGYGIEAKVEPFPQKLQNYESIHLETRRSSCPSFGTQLYNEPIYEGDEDPLGLGITPPVVTKTSGSLSNNGLDGINLNWKSIPAPVHQMQQHNANGDFVAAWPQNTIEKPTVGPLDKLQKQFEDIKLISISSGENTPTTRSKADEWLDDVLRVSMSMSPTSPSSDPPSTSSYSVLPKSGPPPAHAPPPLPVRQAVSNGSPSIYQQQLQQANSTRNSPAGINWNSSPNPMKISQPPAKPVDPFDVQWSRLAVNNTH | not soluble |
| MVLSRHVIITPCPDRPGTSILFSAKRGALILVDDELLAAIGAGGLDADEEQTLAELGFLVPDHDSEQQEMCSFVDESNRASRSFAALIILNLSCNLACSYCFEGNRRGAHFMDDDTADRLVAYLVSGPVAEGRSLSLRFYGGEPLLSVPTIRRIARPLKKVMDARGLSFSFSLTTNGTLLTRELVEELIPLGLVGATVTLDGPPDIHDAARPFVGGEGSFSVIFANLKAVADLIALEIGGNFTPETYREYPRLFDLLVAEGLGPERLALVRFNAVMSAGENRALPEFTGGCASVNEPWLKDATLFIREELLRRGFPAPGLSPHYCAIEAEDSLIVNHDGTFYRCPAFIGIEGLAAGSLDDGLSDHAASHGLGAWKNEECLSCAYLPLCFGGCRYYGYLEHGRIDRVSCGRDLFDAIVGPFLALEVKYRHQPGEDASDTDGDSD | not soluble |
| MVLYVPTYREDKADNRAIDKAYFEKCLPGYTLINKLHPSIEDSDIDDVSSIDTSTLMLMSDIIISDYSSLPIEASLLDIPTIFYVYDEGTYDKVRGLNQFYKAIPDSYKVYTEEDLIMTIQEKEHLLSPLFKDWHKYNTDKSLHQLTEYIDKMVTK | not soluble |
| MVMATRVKNVGNWRIMPDATLAASYQAYKRCQNRRPDKAFTPHPAISAPMPDATLAASYQACKMCQNRVGRIRRSRRIRQLEHHHHHH | not soluble |
| MVMSFIKYPLPESVLQATEQRIQWVMDNFSRICVSFSGGKDSTVMLHLTAQAARLQGKKICVLFIDWEAQFSCTIAHCEKLRALYADVIETFYWVALPLTTQNALTQYKPQWQCWEPGTEWVRQPPPWAITHPGYFSFYQPGMSFEAFVSHFAEWFSQRRPAAVLVGIRADESLNRFMTISSQRKQRFADDKPWTTSAPGGHAWYIYPLYDWKTADIWTWFAKSGEPYNPLYDLMYQAGVPLRYMRICEP | not soluble |
| MVMSKYTQEQIKNLVEGNLDWNTVLKMLSMPKDHERFQMYLKVLQDKVDFDDKIVLPLGPHLFVVQDAQKKWVIKCSCGHAFCAPEENWKLHANIYVRDTAEKMEEVYPKLLASDTHWQVYREYICPDCGILLDVEAPTPWYPVIHDFEPDIEVFYKDWLGIQPPERR | not soluble |
| MVNLELIEVQEGKAKILIPKAESIYDSPVFYNPRMALNRDIVVVLLNILNPKIVLDALSATGIRGIRFALETPAEEVWLNDISEDAYELMKRNVMLNFDGELRESKGRAILKGEKTIVINHDDANRLMAERHRYFHFIDLDPFGSPMEFLDTALRSAKRRGILGVTATDGAPLCGAHPRACLRKYLAVPLRGELCHEVGTRILVGVIARYAAKYDLGIDVILAYYKDHYFRAFVKLKDGARKGDETLEKLGYIYFDDKTGKFELEQGFLPTRPNAYGPVWLGPLKDEKIVSKMVKEAESLSLARKKQALKLLKMIDQELDIPLFYDTHAIGRRLKIETKKVEEIISALREQGYEATRTHFSPTGIKTSAPYEVFIETIKRI | soluble |
| MVNLTRIYTRTGDKGTTALGDMSRVPKTDLRISAYADANEANAVIGTAIALGGLPEEVVKVLVRVQNDLFDVGADLSTPVVENPEYPPLRVEQFYVDKLEADCDRYLAEVEKLRSFILPGGTAGAALLHQACTVVRRAERSTWAALEAHGETMNPLTATYLNRLSDLLFILARVANKEVGDVLWVPGGERLEHHHHHH | soluble |
| MVNPEEQPISILFLGIDDNDGRRKKGQDAEHSRSDAMILTTFNQSKHQIRMLSIPRDTISYIPKVGYYDKITHAHAYGGPIAAMDSVEATMNVPVDYYVRVNMKAFVEAVNELGGIYYDVPYDLNEPNTDDTGKIKIKKGYQKLNGDEALAVARTRHHDSDLKRGQRQMELIKILFQKAQEVDSIDKLDNVIQIVGKNAKHNLTNSEIKALAKMYLTNDVEIKTAQLKGKDDMLNGIYYYHPSVESIQKYANLLRKDLELSPINDKNDFLDQRVINHYGSLIPLTPLDSSLLRKEQNDTTDKDKTSNENNDSTNNSDSSNQQQPATDQNLNQNQGGTQQAPQASNNQNGVVNLEHHHHHH | soluble |
| MVNQPLVSIIIPAYRAENTIAFTVRSVLAQTYDHWQVAIGVDDQVDYLQLLAEQGINDPRLKQVFTGGIGSGEAIARNKAVSICDGDILANLDADDAFASDRLEKLVPLAEKYGVAIDNTGVYNSELVLYKQPFPQRQALNFATAADILSPRIPFFPVFQRQLLGDGWTKVPFAADVLFNLELLSRTEKVAIHPEPLYRYYKRDNSITQSANAFETAEKAYLTILSLLDEGALTLTDAIRQAARQEFSENLALNKVFRRYMEEGRCQNLEQFLDMTNNGQKIEFVSNLNLEHHHHHH | soluble |
| MVPEVFAQARLRMDQLTKPPRALGYLEEVALRLAALQGRVKPELGRGAVVVAAADHGVVAEGVSAYPQEVTRQMVLNFLRGGAAINQFALAADCAVYVLDVGVVGELPDHPGLLKRKVRPGTANLAQGPAMTPEEAERALLAGREAARRAIAEGATLLAAGDMGIGNTTAAAALTAALLGLPPEAVVGRGTGVGEEGLRRKRQAVARALARLHPGMGPLEVAAEVGGIELVAIAGIYLEGYEAGLPLVLDGFPVTAGALLAWKMAPGLRDHLFAGHLSREPGHRHQLEALGLRPLLDLDLALGEGTGAVLAMPLLRAAARILHMATFQEAGVSRG | soluble |
| MVQDWHQQEKARMIQTLTGTKAVYGSEVESKIIEFAIVGADEVVAEKLGVSIGDFVYKIIRLRIIHSIPTIMEHTWMPISVIPGVEASVLEESIYSHIQNKLGLEVGTSVVRVKGIRPDDREKQFMNLTNQDFLMRVEQVAYLTDGRTFEYSYADHLPETFEFETVITAKKL | not soluble |
| MVQLDGGQFEMGTKATDGKDGESPVMQVKVLPFAIDKYPVTNRDFREFVRAKKYKTEAEAFGWSFVFEDFVSEELKKKVTQKLESAPWWLPVERAFWRQVSNLSVPLLLSGGSKGLFAAE | not soluble |
| MVRELKRFGARFTFLFSARRMCPLMTAEGSLPSVEDFWGNCRIARAKGVCSYYEELSRLDEAEVAQYVRSRPVISAYRLAWDIAKFKGACPFFALKGLVEDSQFIVATYPYLFKEDIFRSFLEPYDYGDFVAVVDEAHSLLNIHSLHEYRVSQRDLDLALKEVREYASSARDFIAWLESVLKKASRLKVSRITLLDKQPFLEGLDDLSVVEDVVETIRARKAEEALSLSGPSGIGRVKTMASRIYSWLSVLVRDDSYLFAEKDEGGVLWLIATPLDPSRVVKEPLEKVKAAVLLSGTMPSTKLYMEVLGVSRSFKFVDVNLMYGARGFGRFFTIVAADVTTAYRSRGDSMYRLIASRIAMADRLLPGLKLAVYPSYEVMYRVVERLPADVETIVETRGISLDEVEAKILARDPGEKIIINAVAGGKLVEGVEFVDYEGRNLLSTVIVVGVPFPQPDDYTRKHLEVMASRIGVSNARKLVYLVNPMIKVRQALGRGIRGPEDRALYILMDYRYLRRDLKEVLGMPYHRVVKGAEDFEEAVKAARSRVFGG | soluble |
| MVRSFIYEPFQIPSGSMMPTLLIGDFILVEKFAYGIKDPIYQKTLIETGHPKRGDIVVFKYPEDPKLDYIKRAVGLPGDKVTYDPVSKELTIQPGCSSGQACENALPVTYSNVEPSDFVQTFSRRNGGEATSGFFEVPKNETKENGIRLSERKETLGDVTHRILTVPIAQDQVGMYYQQPGQQLATWIVPPGQYFMMGDNRDNSADSRYWGFVPEANLVGRATAIWMSFDKQEGEWPTGLRLSRIGGIH | soluble |
| MVRTCSNCGSSEIDEDAARGDATCTACGTVLEESIVVTENQFQERAGGSGHTLVGQFVSSERAAANNFNGMGSQESREMTYAKGRKVIDELGSQLRINSHCMNTAFNFYKMCVSRNLTRGRNRSSVVAVCMYITCRLENTAHLLLDFSDVTQINVFDLGRNLNYLSRSLRINLPSTDPCLYIMRFACVLDFGDKQKEVVNLATRLVQRMKRDWMSTGRRPTGICGAALLIAARSLNFNRSINDIVRVVHISEGVIRKRLDEFSQTPSGSLTIDEFSTVDLEHSEDPPAYRESRRKAREDQLRKEAEQAESMKEQLGEMEAHVEAALDKKRKEKFSKSPYARMISENLGKENDKMQTLTETVVESSGLEKGADEMVRNEIINTVFNAAEEDPCTSNSLEKYDKYRPSLESLGIKRTSEPEPEPVPHPIVNADLEEDISDSEIDSYILTESEVAIKTDYWMKANGEAMKEIEEKKRERELNGGVKKKKPRSNRKTDTTSTSVASAVEKVIAEKKLSNKVNYEMLKDLETMATGIKRDIRESTPAPVTPISIKVDSSDVTPDTLSKSEKIARGKNIRSQASESTIQKLRSIFDLTEECSETSKNSSPKVNLKVESASPSTSEVSSIEHKPFVPPARSRYAKVKPIIGAKKLAALNEVKNVHTVPEPSAPAEPIVSEAPLQVKTSSSDPIVTSTEVPSVAEPPAPIQNVEEAKPIVPVKSRYAKAKPNLKPIKQKTAVDVVTVGEGESSEPSAKRTKAEHLES | not soluble |
| MVRVYIGRFPNRASDRDAEHFFCDYGKLPDAIMKNVFGVGCKDFQDQSDADDIICDEQTRILLVEKLKNAKEYPTINHD | not soluble |
| MVSHHNLTTGATLINEQWLLTTAKNLFLNHSENATAKDIAPTLTLYVGKKQLVEIEKVVLHPNYSQVDIGLIKLKQKVSVNERVMPICLPSKDYAEVGRVGYVSGWGRNANFKFTDHLKYVMLPVADQDQCIRHYEGSTVPEKKTPKSPVGVQPILNEHTFCAGMSKYQEDTCYGDAGSAFAVHDLEEDTWYATGILSFDKSCAVAEYGVYVKVTSIQDWVQKTIAEN | not soluble |
| MVSKNKKLNLKDKYQYLTRDMAWEPTYQDKKDIFPEEDFEGIKITDWSQWEDPFRLTMDAYWKYQAEKEKKLYAIFDAFAQNNGHQNISDARYVNALKLFISGISPLEHAAFQGYSKVGRQFSGAGARVACQMQAIDELRHSQTQQHAMSHYNKHFNGLHDGPHMHDRVWYLSVPKSFFDDARSAGPFEFLTAISFSFEYVLTNLLFVPFMSGAAYNGDMATVTFGFSAQSDEARHMTLGLEVIKFILEQHEDNVPIVQRWIDKWFWRGFRLLSLVSMMMDYMLPNKVMSWSEAWEVYYEQNGGALFKDLERYGIRPPKYQDVANDAKHHLSHQLWTTFYQYCQATNFHTWIPEKEEMDWMSEKYPDTFDKYYRPRYEYLAKEAAAGRRFYNNTLPQLCQVCQIPTIFTEKDAPTMLSHRQIEHEGERYHFCSDGCCDIFKHEPEKYIQAWLPVHQIYQGNCEGGDLETVVQKYYHINIGEDNFDYVGSPDQKHWLSIKGRKPADKNQDDA | soluble |
| MVSMNMFEEVEVEAYVYPTEDIEKVKKAMLNLVPGLKFEAFDKGEYMILVGRTRDKRALQRLYELFRGQQILDTARMMLEEGYFGEEIIIKVHKQVAYVGKVNFNEESPLGPITIIIRTKEPQKLMKWLAPRTKDGVPIEAAALEHHHHHH | not soluble |
| MVSRLARLARRVGRKLKALTPTPKTPEPPSLPLILDAPVAPGFTTAREVWCAPGFGVVVDAGGQVLGGAARQALGFSPDLAALPGVRVSDGGSRLILPEGAPRLARGAVVAGWGDLRNYAGFVLNTLPALVEASKAGVLADHPLVTPPLTRWQADLLTLAGLASPLINAAPWVVLDEAVLSPPPSPVATHAMLAEVRERVLATPGPASGARPKLYVSRADAMNAVMVDEEGVEIELAALGYTIVRPETSSTRELIGLFREAKVIVAPTGTVLANALFCAADAQIVEIRPPGANGLWVRDLAVLAGATWHGFDAPGEKEAPGAPLDPALPPASAFGWRADAAALLAFLAQRSLEHHHHHH | not soluble |
